Measurements from article PMC12072577, “Structure and Inhibition of the Human Na^+/H^+ Exchanger SLC9B2” (International Journal of Molecular Sciences, 2025).

How the values were obtained:
[1] = biological target: the molecule itself; test: cryo-EM structure; human NHA2∆N-Fab complex in MSP1E2 nanodiscs with yeast PI lipids; apo and with 1 mM phloretin
[2] = biological target: T1, bison NHA2ΔN reconstituted into biotinylated proteoliposomes (bison, UniProt A0A6P3HVI0); test: ELISA; liposome ELISA: biotinylated proteoliposomes with bison NHA2ΔN immobilised on streptavidin-coated microplates; hybridoma clones
T1 construct: Sodium/proton exchanger NHA2 (SLC9B2) of bison, N-terminally truncated (ΔN); The biotin is on a lipid of the liposome, not on the protein; also called bison NHA2∆N; source: reconstituted with egg PC and a biotinylated lipid
T1 sequence (A0A6P3HVI0 whole entry, stated change not applied, the tested form may be a part): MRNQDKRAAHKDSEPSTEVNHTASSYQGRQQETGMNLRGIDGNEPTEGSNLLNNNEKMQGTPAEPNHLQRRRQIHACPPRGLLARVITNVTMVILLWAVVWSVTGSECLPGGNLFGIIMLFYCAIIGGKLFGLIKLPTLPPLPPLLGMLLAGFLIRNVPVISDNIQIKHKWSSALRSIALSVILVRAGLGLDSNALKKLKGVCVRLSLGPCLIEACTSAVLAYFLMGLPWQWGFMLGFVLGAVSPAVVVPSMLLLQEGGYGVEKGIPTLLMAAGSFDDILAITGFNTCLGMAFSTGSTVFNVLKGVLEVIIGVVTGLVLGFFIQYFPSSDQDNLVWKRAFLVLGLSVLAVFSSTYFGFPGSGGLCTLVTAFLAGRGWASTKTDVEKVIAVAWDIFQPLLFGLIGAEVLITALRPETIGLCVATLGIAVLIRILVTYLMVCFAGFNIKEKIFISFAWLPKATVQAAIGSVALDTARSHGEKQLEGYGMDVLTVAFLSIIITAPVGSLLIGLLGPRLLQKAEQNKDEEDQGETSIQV

Row | Binder | stoichiometry N [1] | binding result [2]
1 | Homo sapiens NHA2∆N (residues 59–537), tags removed with TEV protease, in MSP1E2 nanodiscs (domain or fragment, human, UniProt Q86UD5 59-537, looked up, Sodium/proton exchanger NHA2 (SLC9B2), Homo sapiens, residues 59-537; construct lacks the first 58 amino acids; The methods call the tags N-terminal, but the protein is named NHA2∆N-GFP; TEV protease was added after the nanodisc reconstitution and before the final SEC; also called human NHA2∆N; hsNHA2∆N; not shown: GFP, N-terminal, cleaved; TwinStrep, N-terminal, cleaved; His8, N-terminal, cleaved) LQETPTEANHVQRLRQMLACPPHGLLDRVITNVTIIVLLWAVVWSITGSECLPGGNLFGIIILFYCAIIGGKLLGLIKLPTLPPLPSLLGMLLAGFLIRNIPVINDNVQIKHKWSSSLRSIALSIILVRAGLGLDSKALKKLKGVCVRLSMGPCIVEACTSALLAHYLLGLPWQWGFILGFVLGAVSPAVVVPSMLLLQGGGYGVEKGVPTLLMAAGSFDDILAITGFNTCLGIAFSTGSTVFNVLRGVLEVVIGVATGSVLGFFIQYFPSRDQDKLVCKRTFLVLGLSVLAVFSSVHFGFPGSGGLCTLVMAFLAGMGWTSEKAEVEKIIAVAWDIFQPLLFGLIGAEVSIASLRPETVGLCVATVGIAVLIRILTTFLMVCFAGFNLKEKIFISFAWLPKATVQAAIGSVALDTARSHGEKQLEDYGMDVLTVAFLSILITAPIGSLLIGLLGPRLLQKVEHQNKDEEVQGETSVQV | 2 | 
2 | mouse monoclonal antibody against bison NHA2∆N (parent of the Fab) (antibody, V domains shown, Fab part as the heavy chain of m2 (in PDB 9QUB and 9QUW); as the light chain of m2 (in PDB 9QUB and 9QUW); Whole antibody of the selected hybridoma clone; also called antibody clone; source: mouse hybridoma (MRL/lpr mice immunised with bison NHA2 proteoliposomes)) VH: EVQLQESGPELVKPGASVKMSCKASGYTFTNYFIHWVKQKPGQGLEWIGYINPYNDITKFNEKFKGKATLTSDKSSRTAYMELSSLTSEDSAVYYCARCDGYYRYYAMDYWGQGTSVTVSS VL: DIVMTQTTSSLSASLGDRVTISCRASQDISNYLNWFQQKPDGTVKLLICYTSRLHSGVPSRFSGSGSGTDYSLTISNLEQEDIATYFCQQDSKHPWTFGGGTKLEIK |  | binds
